In test [1] the target is T1, huROR1-His (human ROR1 ECD AA30-406 with C-terminal His tag, made in house) (human, UniProt Q01973 30-406).
T1 construct: range 30-406; Expressed in HEK293; also called antigen protein huROR1-His; not shown: C-terminal His tag
The test is described as follows: ELISA, huROR1-His coated plate, goat anti-human Fc-HRP, OD450.

Test [2] deals with T2, human ROR1 on cells (full-length human ROR1 on huROR1-HEK293 cells; human ROR1 on A549 and HT-29 tumor cells) (human, UniProt Q01973 30-937).
T2 construct: whole, on cells; also called hROR1-HEK293T; A549 tumor cells
T2 sequence (Q01973 30-937): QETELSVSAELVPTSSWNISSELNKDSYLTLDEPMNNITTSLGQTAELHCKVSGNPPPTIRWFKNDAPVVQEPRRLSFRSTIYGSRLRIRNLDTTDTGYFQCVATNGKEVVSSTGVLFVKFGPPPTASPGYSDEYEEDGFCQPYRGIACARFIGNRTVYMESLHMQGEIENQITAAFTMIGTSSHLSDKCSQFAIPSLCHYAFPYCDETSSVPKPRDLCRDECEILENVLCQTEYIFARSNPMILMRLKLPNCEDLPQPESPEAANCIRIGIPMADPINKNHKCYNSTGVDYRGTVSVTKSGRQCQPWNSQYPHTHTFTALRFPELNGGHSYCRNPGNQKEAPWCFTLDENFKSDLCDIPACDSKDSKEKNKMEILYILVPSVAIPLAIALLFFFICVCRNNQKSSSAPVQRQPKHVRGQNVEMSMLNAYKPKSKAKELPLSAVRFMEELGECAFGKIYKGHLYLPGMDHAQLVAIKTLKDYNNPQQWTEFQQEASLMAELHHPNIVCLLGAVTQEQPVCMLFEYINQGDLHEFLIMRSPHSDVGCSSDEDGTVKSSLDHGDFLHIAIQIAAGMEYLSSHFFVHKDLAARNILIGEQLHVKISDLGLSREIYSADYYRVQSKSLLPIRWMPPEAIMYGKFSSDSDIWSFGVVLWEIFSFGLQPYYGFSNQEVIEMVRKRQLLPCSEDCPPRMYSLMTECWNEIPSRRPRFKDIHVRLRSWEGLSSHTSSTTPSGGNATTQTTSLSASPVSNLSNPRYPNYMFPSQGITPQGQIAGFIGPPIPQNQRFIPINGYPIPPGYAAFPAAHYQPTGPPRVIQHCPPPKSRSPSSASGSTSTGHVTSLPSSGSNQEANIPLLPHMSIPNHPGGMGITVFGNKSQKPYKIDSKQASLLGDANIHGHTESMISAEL
The test is described as follows: flow cytometry (FACS) on A549 tumor cells, anti-human IgG-Fc secondary antibody, MFI. The method, then:
(§1) The specific method was as follows: A549 cells or HT-29 cells in the logarithmic growth phase were prepared to a single-cell suspension, the density was adjusted to 1×10⁶ cells/mL, 100 µL/well was added to a 96-well round-bottom plate, then centrifuged at 4° C., 300 g, and the supernatant was removed. […] After the incubation, the cell mixture was washed three times and then 100 μL of 1:300 diluted secondary antibody Goat F(ab′)₂ Anti-Human IgG-Fc (abcam, ab98596) was added. The mixture was incubated at 4° C. in the dark for 30 min. After washing three times, the cells were detected by flow cytometry (Beckman, CytoFLEX AOO-1-1102).

The target of test [3] is T2, human ROR1 on cells (full-length human …). Kind of test: flow cytometry (FACS) on HT29 (HT-29) tumor cells, anti-human IgG-Fc secondary antibody, MFI. The method, then:
as §1

Test [4] deals with T1, huROR1-His (human ROR1 ECD AA30-406 …). The test is described as follows: Gator (BLI) Advanced Kinetics; antibody 30 nM, huROR1-His 480-7.5 nM. The method, then:
First, Q buffer was prepared with PBS (10 mM pH7.4) (IgG-free, purchased from Jackson ImmunoResearch Lab)+0.02% Tween 20 (purchased from thermo)+0.2% BSA (purchased from source culture), and the stock solution of the test antibody was diluted with the prepared Q buffer to a working solution with a final concentration of 30 nM, the stock solution of the antigen protein huROR1-His was prepared with Q buffer into a working solution with multiple dilutions (480, 240, 120, 60, 30, 15, 7.5 nM), and detection and analysis was then performed with Gator instrument and its accompanying software, selecting the Advanced Kinetics experimental mode is used.

The target is the same in test [5]. Kind of test: ELISA, huROR1-His coated plate, goat anti-human Fc-HRP, OD450. The source holds these as a separate data set. A general note: ELISA stands for enzyme-linked immunosorbent assay.
For test [6] the target is unchanged. The test is described as follows: ELISA, huROR1-His coated at 2 µg/mL, goat anti-human Fc-HRP, OD450. The method, then: (§2) 96-well ELISA plate was coated with 2 μg/mL huROR1-His (30 μL/well) at 4° C. overnight. The next day, the plate was washed three times with PBST and then blocked with 5% skim milk for 2 h. […] After washing with PBST for three times, the secondary antibody Goat-anti-human Fc-HRP (abcam, ab97225) was added and incubated for 1 h. After incubation, the plate was washed with PBST for 6 times and TMB (SurModics, TMBS-1000-01) was added for color development. According to the color development results, 2 M HCl was added to terminate the reaction, and the data were read at OD450 using a microplate reader (Molecular Devices, SpecterMax 190).

In test [7] the target is T3, huROR2-His (human ROR2 ECD AA34-403 with C-terminal His tag) (human, UniProt Q01974 34-403).
T3 construct: range 34-403; Expressed in HEK293; also called human ROR2 antigen protein; not shown: C-terminal His tag
T3 sequence (Q01974 34-403 limits assumed): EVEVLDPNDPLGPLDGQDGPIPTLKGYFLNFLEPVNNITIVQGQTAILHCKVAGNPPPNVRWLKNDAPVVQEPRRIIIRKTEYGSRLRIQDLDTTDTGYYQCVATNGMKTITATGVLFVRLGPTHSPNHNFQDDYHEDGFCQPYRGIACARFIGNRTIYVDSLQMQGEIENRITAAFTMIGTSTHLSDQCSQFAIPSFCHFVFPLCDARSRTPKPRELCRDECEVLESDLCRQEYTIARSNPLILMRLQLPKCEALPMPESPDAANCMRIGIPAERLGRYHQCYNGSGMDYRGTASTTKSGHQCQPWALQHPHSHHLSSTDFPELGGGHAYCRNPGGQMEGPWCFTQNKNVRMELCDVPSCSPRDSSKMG
The test is described as follows: ELISA, huROR2-His coated at 2 µg/mL, goat anti-human Fc-HRP, OD450. The method, then: as §2, with “huROR2-His” for “huROR1-His”, “TMBS-1000-0)” for “TMBS-1000-01)”

Test [8] concerns the target T4, MusROR1-His (mouse ROR1 ECD AA30-406 with C-terminal His tag) (mouse, UniProt Q9Z139 30-406).
T4 construct: range 30-406; Expressed in HEK293; also called mouse ROR1 antigen protein; not shown: C-terminal His tag
The test is described as follows: ELISA, MusROR1-His coated at 2 µg/mL, goat anti-human Fc-HRP, OD450. The method, then:
as §2, with “MusROR1-His” for “huROR1-His”

The target in test [9] is T2, human ROR1 on cells (full-length human …). The test is described as follows: flow cytometry (FACS) on A549 tumor cells, anti-human IgG-Fc secondary antibody, MFI. As for the experimental part:
(§3) In this example, the binding activity of the antibody was evaluated using two types of cells, huROR1-HEK293 cells over-expressing human ROR1 and A549 tumor cells.
as §1, with “huROR1-HEK293” for “A549”, “A549” for “HT-29”, “cells/mL, then” for “cells/mL,”, “μL/well cells were” for “µL/well was”, “plate,” for “plate, then”
This is another data set of the same source.

The target is the same in test [10]. The test is described as follows: flow cytometry (FACS) on huROR1-HEK293 cells, anti-human IgG-Fc secondary antibody, MFI. As for the experimental part:
as §3
as §1, with “huROR1-HEK293” for “A549”, “A549” for “HT-29”, “cells/mL, then” for “cells/mL,”, “μL/well cells were” for “µL/well was”, “plate,” for “plate, then”
On the technique in general: Flow cytometry measures light scatter and fluorescence of single cells or particles in a stream.

The target in test [11] is T1, huROR1-His (human ROR1 ECD AA30-406 …). The test is described as follows: Biacore T200 SPR; huROR1-His amine-coupled (~75 RU), antibody 4 and 20 nM as analyte, 1:1 Langmuir fit. As for the experimental part:
Protein coupling: The huROR1-His protein produced in Example 1.2 was diluted to 5.6 μg/mL with NaAc buffer, pH 5.0, the flow rate was set to 10 μL/min, the chip activation time was set to the default value of 420 s with a mixture of 1-ethyl-(3-dimethylaminopropyl)carbodiimide (EDC) and N-hydroxysuccinimide (NHS), and the antigen protein huROR1-His was fixed to a level of about 75 RU using a coupling mode with a preset coupling amount, and the activated groups that were not bound to the test sample were blocked with ethanolamine.
Sample test conditions: PBS buffer (pH 7.4) containing 0.05% Tween-20 was used as the running buffer, and the running buffer was used as the control test sample. A series of antibody concentrations (4 nM, 20 nM) were set. During sample analysis, the flow rate was set to 30 μL/min, the binding time was 120 s, and the dissociation time was 360 s. After the dissociation was completed, 10 mM Gly-HCl (pH 2.0) was used for regeneration for 20 s to completely remove the antibody bound to the ligand.
Parameter fitting: The experiment was run in multiple cycles, with the response signal taking the analysis time as the horizontal axis and the response value as the vertical axis. After double reference subtraction, the obtained data were fitted by BiAcore T200 analysis software. The fitting model adopted was 1:1 Langmuir binding model, and Affinity metrics such as the binding dissociation constant were determined.
A general note: In SPR one partner is held on a chip, and binding of the other changes the refractive index at the surface.

Test [12] shares this target. The test is described as follows: ELISA, huROR1-His coated plate, goat anti-human Fc-HRP, OD450. The source holds these as a separate data set.

A word on the EC50: it is the midpoint of the concentration-response curve. Read a low EC50 as greater potency. As a reminder, the EC50 (read off the curve) is the concentration that produces a half-maximal response. As a reminder, the Kd is a measure of binding affinity in units of concentration. A higher Kd goes with lower affinity. In general, koff refers to the rate constant with which the complex falls apart. Higher therefore signals a short-lived complex. As a reminder, the kon is the rate constant with which the complex forms. The low end stands for slow association, the high end for fast association.

Numbering of substitutions follows the chain as printed.

T1 sequence (Q01973 30-406 limits assumed): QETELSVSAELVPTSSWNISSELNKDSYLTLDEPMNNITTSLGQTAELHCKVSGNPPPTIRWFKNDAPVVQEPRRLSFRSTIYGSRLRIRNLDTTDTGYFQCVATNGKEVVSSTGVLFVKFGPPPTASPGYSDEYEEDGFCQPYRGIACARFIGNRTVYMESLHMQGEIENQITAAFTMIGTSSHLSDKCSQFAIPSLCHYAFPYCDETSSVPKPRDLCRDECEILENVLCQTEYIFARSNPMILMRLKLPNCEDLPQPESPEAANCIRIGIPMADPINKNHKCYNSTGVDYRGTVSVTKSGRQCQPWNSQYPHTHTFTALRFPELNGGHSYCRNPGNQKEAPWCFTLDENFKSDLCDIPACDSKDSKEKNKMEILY
T4 sequence (Q9Z139 30-406 limits assumed): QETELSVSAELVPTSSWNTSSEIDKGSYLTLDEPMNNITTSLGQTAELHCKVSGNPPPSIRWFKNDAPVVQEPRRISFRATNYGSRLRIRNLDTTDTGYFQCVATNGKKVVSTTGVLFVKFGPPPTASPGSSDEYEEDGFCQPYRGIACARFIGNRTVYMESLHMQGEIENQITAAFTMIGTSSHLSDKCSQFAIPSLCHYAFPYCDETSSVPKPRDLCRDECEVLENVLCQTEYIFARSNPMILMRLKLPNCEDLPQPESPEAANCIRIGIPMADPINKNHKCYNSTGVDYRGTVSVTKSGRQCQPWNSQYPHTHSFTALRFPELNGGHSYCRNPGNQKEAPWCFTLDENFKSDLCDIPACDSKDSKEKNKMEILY

B1: B62-H3L3 (antibody, human IgG1, kappa)
heavy: not shown
light: DIQMTQSPSSLSASVGDRVTITCVTSIDIDDDVNWYQQKPGKAPKLLISAGNTLRPGVPSRFSGSGSGTDFTFTISSLQPEDIATYYCLQSDNLPYTFGGGTKLEIKRTVAAPSVFIFPPSDEQLKSGTASVVCLLNNFYPREAKVQWKVDNALQSGNSQESVTEQDSKDSTYSLSSTLTLSKADYEKHKVYACEVTHQGLSSPVTKSFNRGEC
In test [1], B1 showed an EC50 of 7.21 ng/mL. Moreover, the half-maximal effective concentration (EC50 (read off the curve)) in [2] was about 10 ng/mL; in test [3], about 20 ng/mL.

B2: B62-H3L3-MMAE (antibody, human IgG1, kappa)
heavy: not shown
light: B1 light
modifications: MC-VC-PAB-MMAE on cysteine sulfhydryl groups of reduced interchain disulfides; average DAR 3.5 over the whole antibody
notes: conjugated positions not resolved; also called B62-H3L3-MC-VC-PAB-MMAE
On to B2, for which the “EC50 (read off the curve)” value in test [2] and in [3] was about 20 ng/mL in each case.

B3: B62 (chimeric antibody) (antibody, human IgG1, kappa, V domains shown)
VH: DVKLVESGGGLVQPGGSLKLSCAASGFTFSSYVMSWVRQTPDKRLELVATINSNGGNTYYPDSVKGRFTISRDNAKNTLYLQMSSLKSEDTAMYYCARDSLGLRRRDYAMDYWGQGTSVTVSS
VL: DIVLTQSPASLSMAIGEKVTIRCVTSIDIDDDVNWYQQKPGKPPKLLISAGNTLRPGVPSRFSSSGYGTDFVFTIENMLSEDVADYYCLQSDNLPYTFGGGTKLEIKR
notes: ExpiCHO expression
As for B3, the figures for the Kd in test [4] and in [11] were 0.984 nM and 0.0639 nM, respectively. Besides, the off-rate (koff) is 0.000373 s⁻¹ in test [4] and 7.74e-05 s⁻¹ in test [11]. Moreover, the kon is 379000 M⁻¹ s⁻¹ in [4] and 1.21e+06 M⁻¹ s⁻¹ in [11]. Besides, the EC50 in [5] turned out to be 5.58 ng/mL; in [1], 5.46 ng/mL; in [6], 8.03 ng/mL. Besides, the binding result in test [7] is “no binding (tested: 1 µg/mL)”. Besides, the results for the 50% effective concentration (EC50 (read off the curve)) in [8], in test [9] and in test [10] were about 4 ng/mL, about 6 ng/mL and about 70 ng/mL, respectively. Besides, the “t 1/2” value in test [11] was 2.49 h.

B4: B31-H3L3-MMAE (antibody, human IgG1, kappa, V domains shown)
VH: EVQLVESGGGLVQPGGSLRLSCAASGFTFSRYAMSWVRQAPGKGLEWVASISRGGSTYYADSVKGRFTISRDNSKNTLYLQMNSLRAEDTAVYYCASYFGNYDAMDYWGQGTTVTVSS
VL: DIQMTQSPSSLSASVGDRVTITCRASQDINNYVSWFQQKPGKAPKSLIYRANRLVSGVPSRFSGSGSGTDFTFTISSLQPEDFATYYCLQFDEFPYTFGGGTKLEIKR
modifications: MC-VC-PAB-MMAE on cysteine sulfhydryl groups of reduced interchain disulfides; average DAR 3.5 over the whole antibody
notes: conjugated positions not resolved; also called B31-H3L3-MC-VC-PAB-MMAE; B31-MMAE
For B4, the “EC50 (read off the curve)” value in test [2] and in test [3] was about 20 ng/mL throughout.

B5: B31-H2L2 (antibody, human IgG1, kappa, V domains shown)
VH: B4 VH with S74A, N83S
VL: B4 VL with R24K, S56D, F71Y
For B5, the EC50 in test [12] worked out at 4.57 ng/mL.

B6: B31-H2L3 (antibody, human IgG1, kappa, V domains shown)
VH: B4 VH with S74A, N83S
VL: B4 VL
In test [12], B6 registered an EC50 of 4.29 ng/mL.

B7: B31-H1L1 (antibody, human IgG1, kappa, V domains shown)
VH: B4 VH with A40T, G44R, A60P, S74A, N83S, V92M
VL: B4 VL with R24K, S46T, S56D, T69Q, F71Y
notes: also called B31-HIL1
Molecule B7 displayed an EC50 in test [12] of 3.24 ng/mL.
